From patent US20220356266A1

Molecular target: soluble full length KLK2 protein (human kallikrein-2 6-His protein) (human) (UniProt P20151)
Test: SPR; antibody captured on a chip coated with anti-Fc antibody, soluble hK2 injected, 1:1 Langmuir fit

Kd: 0.46 nM
B1: KL2B30 Fab (KLCB80) (Fab, V domains shown)
VH: QVQLQESGPGLVKPSETLSLTCTVSGGSISSYYWSWIRQPPGKGLEWIGYIYYSGSTNYNPSLKSRVTISVDTSKNQFSLKLSSVTAADTAVYYCAGTTIFGVVTPNFYYGMDVWGQGTTVTVSS
VL: DIQMTQSPSFLSASVGDRVTITCRASQGISSYLAWYQQKPGKAPKFLIYAASTLQSGVPSRFSGSGSGTEFTLTISSLQPEDFATYYCQQLNSYPLTFGGGTKVEIKR
